Laboratory results taken from patent publication US11203743B2, “Method for producing long-chain glycosylated genistein” (Jiangnan University, priority 2019, dated 2021).

Assay: Specificity of different cyclodextrin glucosyltransferases to glycosylated genistein products (maltodextrin donor, genistein receptor, HPLC)
Assay type: biochemical
Details: 40° C., pH 6.5, 120 rpm, 20-24 hours
Experimental: Genistein (purchased from Sigma) was dissolved in dimethyl sulfoxide (DMSO) to prepare a genistein solution with a final concentration of 7.5 g/L; maltodextrin (purchased from Shanghai Sangon Biotech Co., Ltd.) was dissolved in a PBS buffer (50 mM, pH 6.5) to prepare a maltodextrin solution with a final concentration of 40 g/L; the freeze-fried pure enzymes of the mutants A156V/L174P, A156V/L174P/166Y, A156V/L174P/A166V, A156V/L174P/A166G, A156V/L174P/A166K, A156S, A156L and L174M obtained in Example 1 were dissolved in a PBS buffer (50 mM, pH 6.5) separately to prepare a CGTase enzyme solution with a final concentration of 15 U/L; 300 μL of the genistein solution, 500 μL of the maltodextrin solution and 200 μL of the CGTase enzyme solution were taken separately, mixed in a 2 mL vial with a lid and placed in a shaker for slow shaking at 40° C. and 120 rpm for 20-24 hours to obtain a reaction solution.
The molar content of short-chain glycosylated genistein (here the short-chain glycosylated genistein was a mixture of monoglycosylated genistein, diglycosylated genistein and triglycosylated genistein) and long-chain glycosylated genistein (here the long-chain glycosylated genistein was a mixture of tetraglycosylated genistein, pentaglycosylated genistein and hexaglycosylated genistein) in the reaction solution was detected by HPLC, the ratio (%) of the molar content of short-chain glycosylated genistein and long-chain glycosylated genistein in the reaction solution to the molar content of total glycosylated genistein in the reaction solution and the content (g/L) of short-chain glycosylated genistein and long-chain glycosylated genistein in the reaction solution were calculated, and detection results were shown in Tables 1 to 2. A method for detecting the ratio (%) of the content of short-chain glycosylated genistein and long-chain glycosylated genistein in the reaction solution to the content of total glycosylated genistein in the reaction solution by HPLC included that the reaction solution was filtered through a 0.22 μm filter membrane, and an Amethyst C18-H column (4.6*250 mm, Sepax, America) was used for detection (see Table 3 for specific detection conditions). The content of long-chain glycosylated genistein=the molar content of hexaglycosylated genistein*the molecular weight of hexaglycosylated genistein+ the molar content of pentaglycosylated genistein*the molecular weight of pentaglycosylated genistein+ the molar content of tetraglycosylated genistein*the molecular weight of tetraglycosylated genistein, and the content of short-chain glycosylated genistein=the molar content of triglycosylated genistein*the molecular weight of triglycosylated genistein+ the molar content of diglycosylated genistein*the molecular weight of diglycosylated genistein+ the molar content of monoglycosylated genistein*the molecular weight of monoglycosylated genistein.

B1: Wild type: cyclodextrin glucosyltransferase with the amino acid sequence shown as SEQ ID NO: 1 (protein)
chain: SPDTSVDNKVNFSTDVIYQIVTDRFADGDRTNNPAGDAFSGDRSNLKLYFGGDWQGIIDKINDGYLTGMGVTALWISQPVENITSVIKYSGVNNTSYHGYWARDFKQTNDAFGDFADFQNLIDTAHAHNIKVVIDFAPNHTSPADRDNPGFAENGALYDNGSLLGAYSNDTAGLFHHNGGTDFSTIEDGIYKNLYDLADINHNNNAMDAYFKSAIDLWLGMGVDGIRFDAVKHMPFGWQKSFVSSIYGGDHPVFTFGEWYLGADQTDGDNIKFANESGMNLLDFEYAQEVREVFRDKTETMKDLYEVLASTESQYDYINNMVTFIDNHDMDRFQVAGSGTRATEQALALTLTSRGVPAIYYGTEQYMTGDGDPNNRAMMTSFNTGTTAYKVIQALAPLRKSNPAIAYGTTTERWVNNDVLIIERKFGSSAALVAINRNSSAAYPISGLLSSLPAGTYSDVLNGLLNGNSITVGSGGAVTNFTLAAGGTAVWQYTAPETSPAIGNVGPTMGQPGNIVTIDGRGFGGTAGTVYFGTTAVTGSGIVSWEDTQIKAVIPKVAAGKTGVSVKTSSGTASNTFKSFNVLTGDQVTVRFLVNQANTNYGTNVYLVGNAAELGSWDPNKAIGPMYNQVIAKYPSWYYDVSVPAGTKLDFKFIKKGGGTVTWEGGGNHTYTTPASGVGTVTVDWQN
modifications: Translated from synthetic DNA
  content of long-chain glycosylated genistein in the reaction solution: 3.2 g/L
  content of short-chain glycosylated genistein in the reaction solution: 11.4 g/L
  ratio of the molar content of long-chain glycosylated genistein to the molar content of total glycosylated genistein in the reaction solution: 15%
  ratio of the molar content of short-chain glycosylated genistein to the molar content of total glycosylated genistein in the reaction solution: 85%
